Assays:
[1] = target: T1, enolase 1 (ENO1), endogenous in CL1-5 human lung cancer cells (human, UniProt P06733 2-434); assay: flow cytometry on live cells
T1 construct: whole, on cells; Used for ENO1 on the surface of live or fixed CL1-5 cells, and for endogenous ENO1 in CL1-5 membrane extracts and lysates (cross-link IP, co-IP); also called alpha-enolase; surface form ENO1

[2] = target: T1, enolase 1 (ENO1), endogenous in CL1-5 …; assay: flow cytometry on live CL1-5 cells

T1 sequence (P06733 2-434): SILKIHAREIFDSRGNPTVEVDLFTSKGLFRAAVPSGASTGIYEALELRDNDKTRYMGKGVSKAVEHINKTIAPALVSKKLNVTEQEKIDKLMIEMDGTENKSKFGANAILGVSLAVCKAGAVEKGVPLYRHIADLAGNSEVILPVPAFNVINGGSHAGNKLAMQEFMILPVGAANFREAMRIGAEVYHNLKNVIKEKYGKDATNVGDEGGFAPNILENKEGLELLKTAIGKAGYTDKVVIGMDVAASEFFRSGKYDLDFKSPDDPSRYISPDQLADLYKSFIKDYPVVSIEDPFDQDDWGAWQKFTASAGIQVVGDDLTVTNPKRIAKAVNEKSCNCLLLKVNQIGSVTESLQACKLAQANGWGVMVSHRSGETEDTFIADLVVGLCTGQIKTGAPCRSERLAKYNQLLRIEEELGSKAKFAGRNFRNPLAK

Row | Binder | binding result [1] | binding result [2]
1 | chimeric ENO1-22 (chENO1-22) (antibody, V domains shown, Variable domain of anti-ENO1 mAb-22 cloned into a human IgG Fc vector; also called chimeric ENO1 mAb; chimeric ENO1 antibody) VH: QVQLQQSGPEVVRPGVSVKISCKGSGYTFTDYAMHWVKQSHAKSLEWIGVISTYNGNTNYNQKFKGKATMTVDKSSSTAYMELARLTSEDSAIYYCARSPLRYWGQGTTLTVSS VL: QIVLSQSPAILSASPGEKVTMTCRASSSVSYMHWYQQKPGSSPKPWIYATSNLASGVPARFSGSGSGTSYSLTISRVEAEDAATYYCQQWSSNPLTFGAGTKLELK | binds | –
2 | anti-ENO1 mAb-22 (antibody, V domains shown, Mouse hybridoma monoclonal antibody; also called ENO1-22; anti-ENO1 mAb-22 antibody) VH: QVQLQQSGPEVVRPGVSVKISCKGSGYTFTDYAMHWVKQSHAKSLEWIGVISTYNGNTNYNQKFKGKATMTVDKSSSTAYMELARLTSEDSAIYYCARSPLRYWGQGTTLTVSS VL: QIVLSQSPAILSASPGEKVTMTCRASSSVSYMHWYQQKPGSSPKPWIYATSNLASGVPARFSGSGSGTSYSLTISRVEAEDAATYYCQQWSSNPLTFGAGTKLELK | – | binds

— US20240174765A1 (ACADEMIA SINICA, published 2024)
